In article PMC9482650, “Quantitative fragmentomics allow affinity mapping of interactomes” (Nature Communications, 2022):
Values belong to the binder of their own block, whether it stands above or below them.

Tests used:
Assay in all cases: holdup assay
Design in all cases: key: below the threshold = too weak to quantify, mostly under pKd 3.1 to 4
DLG1_2, Q12959 = biological target: DLG1_2, Q12959
NHERF3_4, Q5T2W1 = biological target: T1, NHERF3_4, Q5T2W1
T1 sequence (Q5T2W1 373-468, limits assumed, looked up): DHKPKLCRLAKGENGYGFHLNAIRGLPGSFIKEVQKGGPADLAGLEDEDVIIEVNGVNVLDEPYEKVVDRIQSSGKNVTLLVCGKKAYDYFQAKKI

DLG3_1, Q92796 = biological target: T2, DLG3_1, Q92796
T2 sequence (Q92796 125-227, limits assumed, looked up): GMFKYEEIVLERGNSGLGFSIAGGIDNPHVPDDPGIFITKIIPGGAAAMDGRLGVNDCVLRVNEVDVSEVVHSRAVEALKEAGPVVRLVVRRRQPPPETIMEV

ARHGEF11, O15085 = biological target: T3, ARHGEF11, O15085
T3 sequence (O15085 42-136, limits assumed, looked up): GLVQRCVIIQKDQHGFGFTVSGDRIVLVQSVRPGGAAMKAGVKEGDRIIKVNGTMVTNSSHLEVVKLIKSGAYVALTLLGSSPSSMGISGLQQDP

TJP1_3, Q07157 = biological target: TJP1_3, Q07157
PTPN13_1, Q12923 = biological target: T4, PTPN13_1, Q12923
T4 sequence (Q12923 1088-1188, limits assumed, looked up): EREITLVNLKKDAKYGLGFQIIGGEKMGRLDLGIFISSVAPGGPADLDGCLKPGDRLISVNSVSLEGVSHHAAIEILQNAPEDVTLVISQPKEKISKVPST

MAGI1_1, Q96QZ7 = biological target: MAGI1_1, Q96QZ7
NHERF2_2, Q15599 = biological target: NHERF2_2, Q15599
Inadl_1, Q8NI35 = biological target: Inadl_1, Q8NI35
LNX1_3, Q8TBB1 = biological target: LNX1_3, Q8TBB1
LRRC7, Q96NW7 = biological target: T5, LRRC7, Q96NW7
T5 sequence (Q96NW7 1440-1537, limits assumed, looked up): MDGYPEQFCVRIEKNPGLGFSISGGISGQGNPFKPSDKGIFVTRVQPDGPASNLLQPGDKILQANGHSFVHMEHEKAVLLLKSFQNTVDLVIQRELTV

DFNB31_1, Q9P202 = biological target: T6, DFNB31_1, Q9P202
T6 sequence (Q9P202 135-233, limits assumed, looked up): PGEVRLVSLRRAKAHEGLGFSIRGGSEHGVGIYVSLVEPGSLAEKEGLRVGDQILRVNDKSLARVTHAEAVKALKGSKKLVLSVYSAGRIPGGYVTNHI

MAST2, Q6P0Q8 = biological target: MAST2, Q6P0Q8
MAGI2_6, Q86UL8 = biological target: MAGI2_6, Q86UL8
DFNB31_3, Q9P202 = biological target: T7, DFNB31_3, Q9P202
T7 sequence (Q9P202 811-907, limits assumed, looked up): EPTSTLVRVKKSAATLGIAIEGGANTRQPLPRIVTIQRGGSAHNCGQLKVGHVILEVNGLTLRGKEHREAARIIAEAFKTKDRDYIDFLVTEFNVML

Inadl_9, Q8NI35 = biological target: Inadl_9, Q8NI35
TIAM2, Q8IVF5 = biological target: T8, TIAM2, Q8IVF5
T8 sequence (Q8IVF5 885-986, limits assumed, looked up): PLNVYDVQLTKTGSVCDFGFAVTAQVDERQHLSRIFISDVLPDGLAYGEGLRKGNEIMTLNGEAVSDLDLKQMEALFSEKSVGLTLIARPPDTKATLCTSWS

HTRA2, O43464 = biological target: HTRA2, O43464
AHNAK1, Q09666 = biological target: AHNAK1, Q09666
LIN7C, Q9NUP9 = biological target: T9, LIN7C, Q9NUP9
T9 sequence (Q9NUP9 88-185, limits assumed, looked up): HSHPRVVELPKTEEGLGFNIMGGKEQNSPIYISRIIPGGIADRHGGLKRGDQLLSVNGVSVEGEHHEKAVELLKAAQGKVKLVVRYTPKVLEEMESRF

NHERF4_2, Q86UT5 = biological target: NHERF4_2, Q86UT5
APBA2_1, Q99767 = biological target: T10, APBA2_1, Q99767
T10 sequence (Q99767 563-664, limits assumed, looked up): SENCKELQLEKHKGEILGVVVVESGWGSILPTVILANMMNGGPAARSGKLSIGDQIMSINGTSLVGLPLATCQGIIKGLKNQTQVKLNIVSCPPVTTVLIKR

DLG1_3, Q12959 = biological target: DLG1_3, Q12959
MPDZ_12, O75970 = biological target: T11, MPDZ_12, O75970
T11 sequence (O75970 1857-1958, limits assumed, looked up): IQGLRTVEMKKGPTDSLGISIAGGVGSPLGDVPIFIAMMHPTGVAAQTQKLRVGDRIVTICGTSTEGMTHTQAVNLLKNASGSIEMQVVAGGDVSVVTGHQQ

PDZRN3_1, Q9UPQ7 = biological target: T12, PDZRN3_1, Q9UPQ7
T12 sequence (Q9UPQ7 244-349, limits assumed, looked up): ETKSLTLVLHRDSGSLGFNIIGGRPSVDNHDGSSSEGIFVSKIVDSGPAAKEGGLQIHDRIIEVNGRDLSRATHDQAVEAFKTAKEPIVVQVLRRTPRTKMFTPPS

NHERF4_4, Q86UT5 = biological target: NHERF4_4, Q86UT5
[1] = plain residues with an end cap or a label only (N-terminal biotin on a linker: ado-ado)
[2] = modified: phospho on S at position -3 from the C-terminal residue

Sequence of Inadl_1, Q8NI35 (Q8NI35 113-229): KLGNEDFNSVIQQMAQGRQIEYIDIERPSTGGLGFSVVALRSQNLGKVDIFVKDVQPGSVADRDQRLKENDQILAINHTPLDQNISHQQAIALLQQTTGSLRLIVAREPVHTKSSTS
Sequence of DLG1_2, Q12959 (Q12959 314-412): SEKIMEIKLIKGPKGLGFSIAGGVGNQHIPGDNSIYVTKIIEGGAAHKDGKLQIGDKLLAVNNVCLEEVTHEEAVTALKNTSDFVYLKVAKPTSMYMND
Sequence of HTRA2, O43464 (O43464 355-458): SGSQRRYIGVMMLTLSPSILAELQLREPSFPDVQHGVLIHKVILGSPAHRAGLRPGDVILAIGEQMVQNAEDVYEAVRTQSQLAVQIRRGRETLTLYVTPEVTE
Sequence of MAGI2_6, Q86UL8 (Q86UL8 1141-1229): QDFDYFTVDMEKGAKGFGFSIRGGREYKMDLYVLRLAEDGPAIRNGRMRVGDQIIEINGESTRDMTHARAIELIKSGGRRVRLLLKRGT
Sequence of TJP1_3, Q07157 (Q07157 416-512): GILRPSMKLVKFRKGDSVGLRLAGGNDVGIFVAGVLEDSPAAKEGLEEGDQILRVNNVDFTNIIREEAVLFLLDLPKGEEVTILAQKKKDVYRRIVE
Sequence of MAGI1_1, Q96QZ7 (Q96QZ7 1-106): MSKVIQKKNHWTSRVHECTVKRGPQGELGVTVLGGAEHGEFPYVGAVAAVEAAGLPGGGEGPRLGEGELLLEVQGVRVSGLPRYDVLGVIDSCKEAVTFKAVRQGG
Sequence of NHERF4_4, Q86UT5 (Q86UT5 464-550): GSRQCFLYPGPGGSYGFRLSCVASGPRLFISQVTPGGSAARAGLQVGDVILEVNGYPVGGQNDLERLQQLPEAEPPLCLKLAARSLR
Sequence of Inadl_9, Q8NI35 (Q8NI35 1530-1615): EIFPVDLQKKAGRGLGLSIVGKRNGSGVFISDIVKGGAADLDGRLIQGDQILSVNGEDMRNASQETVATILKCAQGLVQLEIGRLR
Sequence of NHERF4_2, Q86UT5 (Q86UT5 220-308): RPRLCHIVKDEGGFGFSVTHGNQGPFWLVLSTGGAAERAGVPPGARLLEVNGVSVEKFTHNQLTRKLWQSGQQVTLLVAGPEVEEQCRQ
Sequence of NHERF2_2, Q15599 (Q15599 142-238): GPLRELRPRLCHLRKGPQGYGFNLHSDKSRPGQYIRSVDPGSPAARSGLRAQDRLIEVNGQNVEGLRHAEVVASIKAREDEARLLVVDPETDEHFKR
Sequence of LNX1_3, Q8TBB1 (Q8TBB1 500-596): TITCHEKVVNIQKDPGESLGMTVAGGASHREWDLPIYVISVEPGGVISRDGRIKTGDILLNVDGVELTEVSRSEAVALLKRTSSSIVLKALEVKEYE
Sequence of DLG1_3, Q12959 (Q12959 457-571): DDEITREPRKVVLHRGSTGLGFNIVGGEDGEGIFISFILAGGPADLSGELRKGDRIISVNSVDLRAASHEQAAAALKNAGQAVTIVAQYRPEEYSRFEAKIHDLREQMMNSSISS
Sequence of AHNAK1, Q09666 (Q09666 4-100): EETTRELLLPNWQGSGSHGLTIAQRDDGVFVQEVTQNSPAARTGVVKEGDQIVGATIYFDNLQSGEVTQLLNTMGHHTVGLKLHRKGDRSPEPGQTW
Sequence of MAST2, Q6P0Q8 (Q6P0Q8 1099-1202): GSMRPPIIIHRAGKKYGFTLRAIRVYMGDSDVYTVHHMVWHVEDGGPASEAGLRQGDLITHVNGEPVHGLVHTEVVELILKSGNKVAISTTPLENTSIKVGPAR

pKd (DLG1_2, Q12959; [1]): below the threshold | pKd (NHERF3_4, Q5T2W1; [1]): below the threshold | pKd (DLG3_1, Q92796; [1]): 3.56 | pKd (ARHGEF11, O15085; [1]): 3.99 | pKd (TJP1_3, Q07157; [1]): 3.61 | pKd (PTPN13_1, Q12923; [1]): below the threshold | pKd (MAGI1_1, Q96QZ7; [1]): below the threshold | pKd (NHERF2_2, Q15599; [1]): 3.62 | pKd (Inadl_1, Q8NI35; [1]): below the threshold | pKd (LNX1_3, Q8TBB1; [1]): below the threshold | pKd (LRRC7, Q96NW7; [1]): below the threshold | pKd (DFNB31_1, Q9P202; [1]): below the threshold | pKd (MAST2, Q6P0Q8; [1]): 4.19 | pKd (MAGI2_6, Q86UL8; [1]): below the threshold | pKd (DFNB31_3, Q9P202; [1]): 4.07 | pKd (Inadl_9, Q8NI35; [1]): below the threshold | pKd (TIAM2, Q8IVF5; [1]): below the threshold | pKd (HTRA2, O43464; [1]): below the threshold | pKd (AHNAK1, Q09666; [1]): below the threshold | pKd (LIN7C, Q9NUP9; [1]): below the threshold | pKd (NHERF4_2, Q86UT5; [1]): below the threshold | pKd (APBA2_1, Q99767; [1]): below the threshold | pKd (DLG1_3, Q12959; [1]): below the threshold | pKd (MPDZ_12, O75970; [1]): below the threshold | pKd (PDZRN3_1, Q9UPQ7; [1]): 3.49 | pKd (NHERF4_4, Q86UT5; [1]): below the threshold
B1: GLA, P06280 (peptide)
chain: TMQMSLKDLL

pKd (DLG1_2, Q12959; [1]): below the threshold | pKd (NHERF3_4, Q5T2W1; [1]): below the threshold | pKd (DLG3_1, Q92796; [1]): below the threshold | pKd (ARHGEF11, O15085; [1]): below the threshold | pKd (TJP1_3, Q07157; [1]): below the threshold | pKd (PTPN13_1, Q12923; [1]): below the threshold | pKd (MAGI1_1, Q96QZ7; [1]): below the threshold | pKd (NHERF2_2, Q15599; [1]): below the threshold | pKd (Inadl_1, Q8NI35; [1]): below the threshold | pKd (LNX1_3, Q8TBB1; [1]): below the threshold | pKd (LRRC7, Q96NW7; [1]): below the threshold | pKd (DFNB31_1, Q9P202; [1]): below the threshold | pKd (MAST2, Q6P0Q8; [1]): 3.92 | pKd (MAGI2_6, Q86UL8; [1]): below the threshold | pKd (DFNB31_3, Q9P202; [1]): 3.96 | pKd (Inadl_9, Q8NI35; [1]): below the threshold | pKd (TIAM2, Q8IVF5; [1]): below the threshold | pKd (HTRA2, O43464; [1]): below the threshold | pKd (AHNAK1, Q09666; [1]): below the threshold | pKd (LIN7C, Q9NUP9; [1]): 4.07 | pKd (NHERF4_2, Q86UT5; [1]): below the threshold | pKd (APBA2_1, Q99767; [1]): below the threshold | pKd (DLG1_3, Q12959; [1]): below the threshold | pKd (MPDZ_12, O75970; [1]): below the threshold | pKd (PDZRN3_1, Q9UPQ7; [1]): below the threshold | pKd (NHERF4_4, Q86UT5; [1]): below the threshold
B2: GRIP1, Q9Y3R0 (peptide)
chain: LETREPTNTL

pKd (DLG1_2, Q12959; [2]): 3.61 | pKd (NHERF3_4, Q5T2W1; [2]): below the threshold | pKd (DLG3_1, Q92796; [2]): below the threshold | pKd (ARHGEF11, O15085; [2]): below the threshold | pKd (TJP1_3, Q07157; [2]): below the threshold | pKd (PTPN13_1, Q12923; [2]): below the threshold | pKd (MAGI1_1, Q96QZ7; [2]): below the threshold | pKd (NHERF2_2, Q15599; [2]): 3.68 | pKd (Inadl_1, Q8NI35; [2]): 3.66 | pKd (LNX1_3, Q8TBB1; [2]): below the threshold | pKd (LRRC7, Q96NW7; [2]): below the threshold | pKd (DFNB31_1, Q9P202; [2]): 3.6 | pKd (MAST2, Q6P0Q8; [2]): 4.21 | pKd (MAGI2_6, Q86UL8; [2]): below the threshold | pKd (DFNB31_3, Q9P202; [2]): below the threshold | pKd (Inadl_9, Q8NI35; [2]): below the threshold | pKd (TIAM2, Q8IVF5; [2]): below the threshold | pKd (HTRA2, O43464; [2]): 3.75 | pKd (AHNAK1, Q09666; [2]): below the threshold | pKd (LIN7C, Q9NUP9; [2]): below the threshold | pKd (NHERF4_2, Q86UT5; [2]): below the threshold | pKd (APBA2_1, Q99767; [2]): below the threshold | pKd (DLG1_3, Q12959; [2]): below the threshold | pKd (MPDZ_12, O75970; [2]): below the threshold | pKd (PDZRN3_1, Q9UPQ7; [2]): below the threshold | pKd (NHERF4_4, Q86UT5; [2]): below the threshold
B3: RPS6KA1_-3P, Q15418 (peptide)
chain: RRVRKLPSTTL
